Literature values, collected in publication PMC1950483.

Assays:
Assay in all cases: NMR
Settings in all cases: folded FNfn10 in solution
[1] = target: Glu9 (UniProt position 1546, VPRDLEVVAAT)
[2] = target: Asp7 (UniProt position 1544, SDVPRDLEVVA)
[3] = target: Asp23 (UniProt position 1560, LLISWDAPAVT)

Fibronectin, tenth type III domain (FNfn10) (Homo sapiens)
pKa [1]: 5.25 | pKa [2]: 5.54 | pKa [3]: 5.40
